Measured values from patent publication US11298402B2, “Lysosomal degradation of lipids and proteins and method of use thereof” (University of Ottawa, priority 2015, dated 2022).

B1: Vps11: HOPS subunit overexpressed from plasmid (GFP-tagged) (protein)
chain: AAYLQWRRFVFFEKELVKEPLGNDGATPGAAPTSGPTASKFLCLPPGITVCDSGRGSLVFGDMEGQIWFLPRSLQLTGFQAYKLRVTHLYQLKQHNILASVGEDEEGINPLVKIWNLEKRDGGNPLCTRILPAIPGTEPTVVSCLTVHENLNFMAIGFTDGSVTLNKGDITRDRHSKTQILHKGSYPVTGLAFRQAGKTTHLFVVTTENVQSYIVSGKDYPRVELDTHGCGLRCSALSDPSQDLQFIVAGDECVYLYQPDERGPCFAFEGHKLIAHWFRGYLVIVSRDRKVSPKSEFTSRDSQNSDKQILNIYDLCNKFIAYSAVFEDVVDVLAEWGSLYVLTRDGRVHALQEKDTQTKLEMLFKKNLFEMAINLAKSQHLDSDGLAQIFMQYGDHLYSKGNHDGAVQQYIRTIGKLEPSYVIRKFLDAQRIHNLTAYLQTLHRQSLANADHTTLLLNCYTKLKDSSKLEEFIKTKSESEVHFDVETAIKVLRQAGYYSHALYLAENHAHHEWYLKIQLEDIKNYQEALRYIGKLPFEQAESNMKRYGKILMHHIPEQTTQLLKGLCTDYRPSLEGRGDREFPSCRANSEEFIPIFANNPRELKAFLEHMSEVQPDSPQGIYDTLLELRLQNWAHEKDPQAKEKLHAEAISLLKSGRFCDVFDKALVLCQMHDFQDGVLYLYEQGKLFQQIMHYHMQHEQYRQVIAVCERHGEQEPSLWEQALSYFARKEEDCKEYVAAVLRHIENKSLMPPLLVVQTLAHNSTATLSIIRDYLVQKLQKQSQQIAQDELRVRRYREETTRIRQEIQELKASPKIFQKTKCSICNSALELPSVHFLCGHSFHQHCFESYSESDADCPTCLPENRKVMDMIRAQEQKRDLHDQFQHQLKCSNDSFSVIADYFGRGVFNKLTLLTDPPTARLTPSLEAGLQRDLLMHSRRGT
B2: Vps39: HOPS subunit overexpressed from plasmid (GFP-tagged) (protein, UniProt Q96JC1 1-886, looked up)
Vam6/Vps39-like protein: MHDAFEPVPILEKLPLQIDCLAAWEEWLLVGTKQGHLLLYRIRKDVVPADVASPESGSCNRFEVTLEKSNKNFSKKIQQIHVVSQFKILVSLLENNIYVHDLLTFQQITTVSKAKGASLFTCDLQHTETGEEVLRMCVAVKKKLQLYFWKDREFHELQGDFSVPDVPKSMAWCENSICVGFKRDYYLIRVDGKGSIKELFPTGKQLEPLVAPLADGKVAVGQDDLTVVLNEEGICTQKCALNWTDIPVAMEHQPPYIIAVLPRYVEIRTFEPRLLVQSIELQRPRFITSGGSNIIYVASNHFVWRLIPVPMATQIQQLLQDKQFELALQLAEMKDDSDSEKQQQIHHIKNLYAFNLFCQKRFDESMQVFAKLGTDPTHVMGLYPDLLPTDYRKQLQYPNPLPVLSGAELEKAHLALIDYLTQKRSQLVKKLNDSDHQSSTSPLMEGTPTIKSKKKLLQIIDTTLLKCYLHTNVALVAPLLRLENNHCHIEESEHVLKKAHKYSELIILYEKKGLHEKALQVLVDQSKKANSPLKGHERTVQYLQHLGTENLHLIFSYSVWVLRDFPEDGLKIFTEDLPEVESLPRDRVLGFLIENFKGLAIPYLEHIIHVWEETGSRFHNCLIQLYCEKVQGLMKEYLLSFPAGKTPVPAGEEEGELGEYRQKLLMFLEISSYYDPGRLICDFPFDGLLEERALLLGRMGKHEQALFIYVHILKDTRMAEEYCHKHYDRNKDGNKDVYLSLLRMYLSPPSIHCLGPIKLELLEPKANLQAALQVLELHHSKLDTTKALNLLPANTQINDIRIFLEKVLEENAQKKRFNQVLKNLLHAEFLRVQEERILHQQVKCIITEEKVCMVCKKKIGNSAFARYPNGVVVHYFCSKEVNPADT
modifications: GFP tag

Columns and labels:
[1] = tested on: McA-RH7777 cells stably expressing human apoB-100 and human apoC-III (A18-C3); format: cell-based; details: for effect on EPA-induced lipid degradation (CLD turnover): cells silenced, transfected or pre-treated, then EPA 0.4 mM, 6 h; for effect on lipid degradation when co-expressed with Arl8b^WT, Arl8b^Q75L or Arl8b^T34N: co-transfected cells, 6 h post-OA or -EPA
Protocol: (§1) In certain non-limiting examples described herein, McA-RH7777 cells stably expressing human apoB-100 and human apoC-III (designated A18-C3) were used for the studies. […] In addition, these studies, particularly those concerning EPA- or DHA-triggered lysosomal motility and CLD degradation, were also performed using primary rat hepatocytes. Transfection of plasmids encoding proteins of interest, or transfection of siRNA specific for silencing target gene expression, was achieved using the FuGENE HP Extreme reagent (Roche). Representative gene silencing siRNA sequences, which are not meant to be limiting, are described in Table 1, and plasmids encoding proteins of interest are described in Table 2. The effectiveness of siRNA silencing was verified by Western-blotting of cellular content of the target proteins, and by intracellular localization assay using siRNA-Tracker (Mirus Bioscience). Twenty-four h after plasmid transfection, or 48 h after siRNA transfection, the cells were cultured in lipid-rich media containing fetal bovine serum (20%) and OA (0.4 mM). The lipid-laden cells were switched to fresh media supplemented with OA or EPA (0.4 mM). In live imaging experiments, LipidTOX Red (Life Technologies) and LysoTracker (Life Technologies) were added to media prior to EPA treatment, to visualize lipid droplets and lysosomes, respectively. For visualizing peroxisomes, Peroxisome-GFP (Invitrogen) was introduced to the cells 24 h prior to experiments. Quantification of cell lipid contents was achieved either by direct mass measurement (HPTLC) and counting the number of lipid droplets using Image J Lipid Droplet Counter Plug-In, or indirectly by Western blot analysis of cellular content of ADRP. Secretion of apoB and TG-rich lipoprotein was determined by Western blot analysis and metabolic labeling. Mitochondrial β-oxidation was measured using MitoSOX Red (Life Technologies) in situ. Autophagic flux was determined by using Cyto-ID assay (Enzo Life Science) and by monitoring GFP-LC3 clustering in situ. Interaction of Arl8b and subunits of the HOPS complex was determined in situ by the proximity ligation assay (Olink Biosience). Cytoplasmic pH was measured using the cytosolic pHrodo indicator reagent (Invitrogen). Live imaging of fluorescent-tagged proteins was performed 1 h post-EPA treatment. Cells were also collected at the time of EPA treatment for transmission EM and tomography, as well as immuno-EM. For movies, cells were imaged at 60 sec intervals every 5 min, for a total of 30 min.
The A18-C3 cells were cultured in DMEM (Invitrogen) supplemented with fetal bovine serum (20%), penicillin (50 U/mL), streptomycin (50 μg/mL, Invitrogen) and Geneticin/G418 (500 μg/mL, Gibco) at 37° C. in 5% CO2. Transfection was conducted when cells were 60-70% confluence. Appropriate plasmids were mixed with FuGENE HP extreme reagent (Roche Diagnostic), according to manufacturer's protocol, and incubated for 30 min. Twenty-four h after transfection, cells were switched to lipid-rich media containing OA (0.4 mM) for additional 16 h prior to imaging and biochemical analysis. In silencing experiments, appropriate siRNAs were transfected into cells using the X-treme GENE siRNA regent (Roche Diagnostic). Localization of siRNA in transfected cells in situ was carried out using the Cy5 Label IT-siRNA Tracker (Minis Bioscience #7213) according to manufacturer's protocol. Forty-eight h after transfection, cells were switched to lipid-rich media containing OA (0.4 mM) for additional 16 h prior to imaging and biochemical analysis.
Quantification of lipid droplets was carried out using confocal and differential interface contrast (DIC) microscopy. Lipid droplets were stained with LipidTOX Red (Invitrogen) before adding OA or EPA. All images were visualized using a 63× oil immersion objective lens. Z-series stacks were acquired with 0.2 μm steps. […]

[2] = tested on: McA-RH7777 cells (A18-C3); assay: Immuno-EM of Arl8b organellar association; format: cell-based, rat; details: RFP-tagged Arl8b in transfected cells, 1 h post-EPA
Protocol: For immunogold labeling, pellets of cells cultured in media containing OA or EPA (0.4 mM) were fixed with 0.5% glutaraldehyde and 4% paraformaldehyde in 0.1 M phosphate buffer (pH 7.4) and dehydrated through a series of graded ethanol dilutions, and embedded in LR White acrylic resin (London Resin Company). Ultrathin sections (80 nm) were placed on Formvar-coated nickel grids. For post-embedding immunolabeling, the sections were incubated with an anti-Arl8b antibody (Fitzgerald) for 1 h. For ^RFPArl8b-transfected cells, that primary antibody used was anti-RFP (Abcam). After washing with 0.2 M sodium cacodylate buffer containing 0.1% calcium chloride, pH 7.4, the samples were incubated with the secondary antibody conjugated with 10-nm gold particles. To increase contrast, the ultrathin sections were stained with 2% uranyl acetate for 6 min and Reynold's lead for 5 min. The grids were examined with a Tecnai 12 120 kV TEM as described above.

[3] = tested on: hepatic cells; assay: Hepatic glucose uptake (fluorescent 2-NBDG assay); format: cell-based; details: transfected cells treated with EPA
[4] = tested on: endogenous HOPS subunits (Vps41, Vps11, Vps39); assay: Proximity ligation assay (in situ co-IP) of Arl8b with HOPS subunits; format: cell-based, rat; details: mCherry-tagged Arl8b
Protocol: as §1
Cells were transfected with plasmids encoding RFP-tagged Arl8b^WT, Arl8b^Q75L, or Arl8b^T34N. The cells were treated with OA for 16 h (baseline condition as control). […] Quantification of signals was done in a total of 50 cells under each condition from 3 independent experiments.

[5] = tested on: C57BL/6 mice; assay: Diet-induced fatty liver mouse model (high-fat-high-sucrose diet), Oil Red O; format: in vivo; details: adenovirus injected 1 day before HFHS diet for up to 4 days
Protocol: The respective Arl8b^T34N (DN), Arl8b^Q75L (DA), and Arl8b^WT constructs, along with empty virus (EV; control treatment) were injected into mice 1 day prior to feeding with a high fat diet for up to 4 days. The livers were stained with Oil Red O to determine the lipid contents, under the expression of various forms of Arl8b.
In these experiments, C57BL/6 mice were injected with adenovirus encoding different variants, namely Arl8b^T34N, Arl8b^Q75L, and Arl8b^WT. In these mice, expression of Arl8b proteins encoded by the adenoviral vectors lasts at least a few weeks. Thus, 1-day after viral injection, the mice were placed on a high-fat-high-sucrose (HFHS) diet for up to 4 days.

[6] = tested on: McA-RH7777 cells (A18-C3); assay: Live imaging of lysosomal motility and lysosome-CLD interaction (kiss-and-run); format: cell-based, rat; details: for effect on EPA-triggered lysosomal motility / lysosomal interaction with CLD: cells silenced, transfected or pre-treated (15 min) before EPA
Protocol: as §1
Cells were grown on 35-mm glass bottom dishes (Ibidi GmbH München, Germany) for 16 h in DMEM supplemented with FBS (20%) and OA (0.4 mM). Cells were imaged using a Zeiss 510 META laser scanning confocal microscope with a heated CO2-controlled stage (5% CO2 at 37° C.). Images were captured at a frame-rate of 30 frame/sec using a 63×. N.A.1.4 objective. Recommended laser lines and filter combinations were used for each dye. For visualization of lipid droplets, lysosomes, mitochondria, and mitochondrial β-oxidation, the respective reagents LipidTOX Red (Invitrogen), LysoTracker (Life Technology), MitoTracker (Life Technology), MitoSox Red (Invitrogen), and Peroxisome-GFP BacMam2.0 (Invitrogen) were introduced into the cells, according to manufacturers' recommendations, prior to EPA treatment.
Cells were cultured with lipid-rich media containing OA (0.4 mM) for 16 h. The lipid-laden cells were switched to fresh media containing EPA (0.4 mM) for 1 h, and the lysosomal movement towards lipid droplets was recorded by time-lapse microscopy. Fluorescent intensity of lysosomal signals at the periphery of selected individual lipid droplet was measured using Image J Live Intensity Profiler Plug-in^31-33 over a period of 40 sec. Quantification for each condition was carried out for 60 individual lipid droplets from three independent experiments. Constant threshold was applied to all of the images in each experiment.

Row | Molecule | effect on EPA-induced lipid degradation (CLD turnover) [1] | organellar association (lysosome vs CLD) [2] | glucose uptake [3] | binding to endogenous HOPS subunits ([4]; cells treated with OA) | binding to endogenous HOPS subunits ([4]; upon addition of EPA) | liver steatosis (Oil Red O) [5] | duration of association between lysosomes and CLD (the on phase) ([6]; GFP-tagged Arl8b-expressing cells, EPA) | effect on EPA-triggered lysosomal motility / lysosomal interaction with CLD [6] | effect on lipid degradation when co-expressed with Arl8b^WT, Arl8b^Q75L or Arl8b^T34N [1]
1 | Arl8b^WT: wild-type ADP-ribosylation factor-like protein 8b, overexpressed from plasmid or adenovirus; tagged forms used | An increase in lipid degradation | dual presentation between lysosomes and CLD | Low level of glucose uptake | binds predominately to endogenous Vps41 and to a lesser extent Vps11 | binds to all three Vps proteins examined | steatosis became apparent | approximately 15 seconds | does not affect lysosomal motility | –
2 | B1 | block lipid degradation | – | – | – | – | – | – | enhanced lysosomal-CLD interaction | invariably blocks lipid degradation
3 | B2 | promotes the process | – | – | – | – | – | – | does not interfere with termination of lysosomal lipid droplet engulfment process and dissociation from CLD | promotes the process
